Source: US20040018198A1 (Amgen, published 2004)
Numbering of substitutions follows the chain as printed.

B1: AB-MN-22.8.1 (antibody, human IgG2, V domains shown)
VH: SGPGLVKPSETLSLTCTVSGGSISSYYWSWIRQPPGKGLEWIGYIYYSGSTNYNPSLKSRVTISVDTSKNQFSLKLTSVTAADTAVYYCARDQHSSSVYYYYYGMDVWGQGTTVTVSS
VL: ETQLTQSPGTLSLSPGERATLSCRASQSIYINYLAWYQQKPGQAPRLLISGASSRATGIPDRFSGSGSGTDFTLTISRLEPEDFAVYYCQQYGRSLTFGGGTEVEIKR
notes: also called AX014H22-8-1
B2: AB-MN-22.7 (antibody, human IgG2, V domains shown)
VH: QVQLVESGGGVVQPGRSLRLSCAASGFTFSSYGMHWVRQAPGKGLEWVAVISYDGSNKYYADSVKGRFTFSRDNSKNTLYLQMNSLRAEDTAVYYCARRGITMVRGAPSYYGMDVWGQGTTVTVSS
VL: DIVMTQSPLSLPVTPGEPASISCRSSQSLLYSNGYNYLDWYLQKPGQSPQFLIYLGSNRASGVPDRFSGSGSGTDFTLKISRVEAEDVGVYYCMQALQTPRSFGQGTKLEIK
notes: also called AX014H22-7
B3: AB-MN-22.15 (antibody, human IgG2, V domains shown)
VH: QVQLQESGPGLVKPSQTLSLTCTVSGGSISSGGYYWSWIRQHPGKGLEWIGYIYYSGYTYYNPSLKSRVTISVDTSKNQFSLKLSSVTAADTAVYYCARDRYYDILTGYYNYGMDVWGQGTTVTVSS
VL: not shown
notes: also called AX014H22-15
B4: AB-MN-21.2.1 (antibody, human IgG1, V domains shown)
VH: QVQLQESGPGLVKPSQTLSLTCTVSGGSISSGGYYWNWIRQHPGKGLEWIGYIYYSGSTYYNPSLKSRVTISVDTSKNQFSLKLSSVTAADTAVYYCARTYYDILTGYPDAFDIWGQGTMVTVSS
VL: DIQMTQSPSSLSASVGDRVTITCRASQDIRNDLGWYQQKPGKAPKRLICAASSLQSGVPSSFSGSGSGTEFTLTISSLQPEDFATYYCLQHNSYPWTFGQGTKVEIK
notes: also called AX014H21-2-1
B5: AB-MN-22.18 (antibody, human IgG2, V domains shown)
VH: B4 VH
VL: B4 VL
notes: also called AX014H22-18
B6: AB-MN-22.25 (antibody, human IgG2, V domains shown)
VH: QLQLQESGPGLVKPSETLSLTCTVSDGSISSSSYYWGWIRQPPGKGLEWIGSIYYSGSTYYNPSLKSRVTISVDTSKNQFSLKLSSVTAADTAVYYCARHGSFFDYWGQGTLVTVSS
VL: B4 VL with D28G, C49Y, S61R, A84T, H91Y, N92K
notes: also called AX014H22-25
B7: AB-MN-22.28.1 (antibody, human IgG2, V domains shown)
VH: QVQLEQSGGGLVQPGGSLRLSCAASGFTFSSYAMSWVRQAPGKGLEWVSAISGSGGGTYYADSVKGRFTISRDNSKNTLYLQMNSLRAEDTAVYYCASGRYYYYYDMDVWGQGTTVTVSS
VL: B4 VL with Q3R, M4L, D28G, C49Y, S61R, W96L, Q100G
notes: the numbering there is inconsistent; also called AX014H22-28-1
B8: AB-MN-22.30 (antibody, human IgG2, V domains shown)
VH: QVQLVESGGGVVQPGRSLRLSCAASGFTFSSYAMHWVRQAPGKGLEWVAVIWYDGSTKYYADSVKGRFTISRDNSKNTLYLQMNSLRAEDTAVYYCARDRGLLWFGELSPHYGMDVWGQGTTVTVSS
VL: B4 VL with D28G, C49Y, S61R, E70D, N92Y, W96L, Q100G
notes: also called AX014H22-30
B9: AB-MN-22.14 (antibody, human IgG2, V domains shown)
VH: QVQLQESGPGLVKPSETLSLTCTVSGGSVISGGYYWSWIRQPPGKGLEWIGYIYYSGSSNYNPSLKSRVTISVDASKNQFSLRLSSVTAADTAVYYCARSMVRGVSFDYWGQGTLVTVSS
VL: B4 VL with D28G, C49Y, S61R, W96L, Q100G
notes: also called AX014H22-14
B10: AB-MN-22.20 (antibody, human IgG2, V domains shown)
VH: B4 VH with Y34S, N37T, S58N
VL: B4 VL with D28G, C49Y, S61R, A84T, H91Y, N92K
notes: also called AX014H22-20
B11: AB-MN-XG1-051 (antibody, human IgG1, V domains shown)
VH: EVQLVEFGGGLVKPGGSLRLSCAASGFTFSSFRMNWVRQAPGEGLEWVSSITSSSSYIYYADSVKGRFTISRDNAKNSLYLQMNSLRAEDTAVYYCARFTAMALDYWGQGTLVTVSS
VL: DIQMTQSPSSLSASVGDRVTITCRASQGIFNYLAWYQQKPGKVPKLLIYAASTLQSGVPSRFSGSGSGTDFTLTISSLQPEDVAVYYCLKYNSAPWTFGQGTKVEIK
notes: also called MN51; AB-MN-XG1-51
B12: AB-MN-XG1-080 (antibody, human IgG1, V domains shown)
VH: QVQLQESGPGLVKPSETLSLTCTVSGGSISSYYWSWIRQPPGKGLEWIGYIYYSGSTNYNPSLKSRVTISVDTSKNQFSLKLSSVTAADTAVYYCARDTRTIFGVVSGMDVWGQGTTVTVSS
VL: EIVLTQSPGTLSLSPGERATLSCRASQSVYSSYLAWYQQKPGQAPRLLIYGASSRAPGIPDRFSGSGSGTDFTLTISRLEPEDFAVYYCQHYGRSLTFGGGTKVEIK
notes: also called MN80
B13: AB-MN-22.19 (antibody, human IgG2, V domains shown)
VH: QVQLQESGPGLVKPSETLSLTCTVSGGSISFYYWNWIRQPAGKGLEWVGRIYTSGSTNYNPSLKSRVTMSVDTSKNQFSLKLSSVTAADTAVYYCARGGFLEWDYYYGMDVWGQGTTVTVSS
VL: B12 VL with Y30S, S31V, S32T, P57T, H91Q, R94S, L96V
notes: also called AX014H22-19
B14: AB-MN-XG1-141 (antibody, human IgG1, V domains shown)
VH: B12 VH with T23S, K75N, Q77H
VL: B12 VL with A25T, S28T, S32T, P57T, Y87F
notes: also called MN141
B15: AB-MN-22.13.1 (antibody, human IgG2, V domains shown)
VH: RVQLVESGGGLVQPGGSLRLSCAASGFTFSRYSMNWVRQAPGKGLEWVSYISSSSSTIYYADSVKGRFTISRDSAKNSLYLQMNSLRDEDTAVYYCARSLRSGGMDVWGQGTTVTVSS
VL: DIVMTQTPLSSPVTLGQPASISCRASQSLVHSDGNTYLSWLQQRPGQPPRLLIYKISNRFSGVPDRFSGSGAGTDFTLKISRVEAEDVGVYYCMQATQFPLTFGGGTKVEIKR
notes: also called AX014H22-13-1
B16: AB-MN-21.6.1 (antibody, human IgG1, V domains shown)
VH: QVQLQESGPGLVKPSQTLSLTCTVSGGSISSGGYYWSWIRQHPGKGLEWIGYIYYSGSTYYNPSLKSRVTISVDTSKNQFSLKLSSVTAADTAVYYCARAGKYYGSGSYLDYWGQGTLVTVSS
VL: not shown
notes: also called AX014H21-6-1
B17: AB-MN-21.5.2 (antibody, V domains shown)
VH: B16 VH with Q5E, E6Q, Y34R, V73I, K102T
VL: not shown
notes: also called 21.5.2 n; AX014H21-5-2
B18: AB-MN-21.17.1 (antibody, human IgG1, V domains shown)
VH: QVQLQESGPGLVKPSETLSLTCTVSGGSISSYYWSWIRQPAGKGLEWIGRIYTSGSTNYNPSLKSRVTMSVDTSKNQFSLKLSSVTAADTAVYYCARDGQWLEDYGMDVWGQGTTVTV
VL: EIVLTQSPGTLSLSPGERATLSCWASQSVFSNYLAWYQQKPGQAPRLLIYGASSRATGIPDRFSGSGSGTDFPLTISRLEPEDFAVYYCQQYGSSPLTFGGGTKVEIK
notes: also called 21.17.1 I; AX014H21-17-1
B19: AB-MN-XG1-023 (antibody, human IgG1, V domains shown)
VH: QVQLQESGPGLVKPSQTLSLTCTVSGGSISSGGYYWSWIRQHPGKGLEWIGYIYYSGSTYYNPSLKSRVTISVDTSKNQFSLKLSSVTAADTAVYYCARENYDILTGFNWFDPWGQGTLVTVSS
VL: DIQMTQSPSSVSASVGDRVTITCRASQGISSWLAWYQQKPGKAPKVLIYSTSRLQSGVPSRFSGSGSGTDFTLTISSLQPEDFATYYCQQADSFRTFGQGTKVEIK
notes: also called MN23; AB-MN-XG1-23
B20: AB-MN-21.1.1 (antibody, human IgG1, V domains shown)
VH: QVQLQESGPGLVKPSETLSLTCTVSGGSISSYYWSWIRQPPGKGLEWIGYIYYSGSTNYNPSLKSRVTISVDTSKNQFSLKLSSVTAADTAVYYCARRGYDILTGYDYFDYWGQGTLVTVSS
VL: DIQMTQSPSSVSASVGDRVTITCRASQGISIWLTWYQQKPGKAPKLLIYAASSLQSGVPSRFSGSGSGTDFTLTISSLQPEDFATYYCQQANSFPITFGQGTRLEIK
notes: also called 21.1.1 a; AX014H21-1-1
B21: AB-MN-22.12 (antibody, human IgG2, V domains shown)
VH: QVQLQESGPGLVKPSETLSLTCTVSGGSISSYYWSWIRQPPGKGLEWIGYIYSSGSTNYNPSLKSRVTISVDTSKNQFSLKLSSVTAADTAVYYCARDQHSSSFYYYYYGMDVWGQGTTVTVSS
VL: B20 VL with I31S, T34A, I96L, Q100P, R103K, L104V, E105D
notes: also called AX014H22-12
B22: AB-MN-22.17 (antibody, human IgG2, V domains shown)
VH: B20 VH
VL: B20 VL
notes: also called AX014H22-17
B23: AB-MN-22.29 (antibody, human IgG2, V domains shown)
VH: QVQLQESGPGLVKPSETLSLTCTVSGGSISSYYWSWIRQPAGKGLEWIGRIYTSGSTNYNPSLKSRVTMSVDTSKNQFSLKLSSVTAADTAVYYCARDGQWLEDYGMDVWGQGTTVTVSS
VL: B20 VL with I31S, T34A, Y36F
notes: also called AX014H22-29
B24: AB-MN-21.14.1 (antibody, human IgG1, V domains shown)
VH: B20 VH with I102F
VL: B20 VL with I31S, T34A, Y36F
notes: also called 21.14.1 j; AX014H21-14-1
B25: AB-MN-21.10.1 (antibody, human IgG1, V domains shown)
VH: QLEQSGPGLVKPSETLSLTCTVSDGSISSSSYYWGWIRQPPGKGLEWIGSIYYSGSTYYNPSLKSRVTISVDTSKNQFSLKLSSVTAADTAVYYCARHGSFFDYWGQGTLVTVSS
VL: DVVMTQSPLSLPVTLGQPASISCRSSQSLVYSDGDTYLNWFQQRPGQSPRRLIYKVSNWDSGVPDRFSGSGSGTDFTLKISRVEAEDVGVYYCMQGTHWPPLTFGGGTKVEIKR
notes: also called 21.10.1 g; AX014H21-10-1

target: CA IX catalytic domain protein (CA9-CD) (human, UniProt Q16790 138-391); test: ELISA on CA9-CD (catalytic domain)

Row | Binder | OD [OD]
1 | B1 | 2.77
2 | B2 | 0.715
3 | B3 | 2.53
4 | B4 | 2.48
5 | B5 | 2.75
6 | B6 | 2.48
7 | B7 | 2.54
8 | B8 | 2.46
9 | B9 | 2.03
10 | B10 | 2.71
11 | B11 | 2.88
12 | B12 | 2.85
13 | B13 | 3.01
14 | B14 | 2.56
15 | B15 | 0.118
16 | B16 | 2.25
17 | B17 | 2.43
18 | B18 | 2.66
19 | B19 | 2.42
20 | B20 | 2.5
21 | B21 | 2.58
22 | B22 | 2.57
23 | B23 | 2.52
24 | B24 | 2.47

target: CA-IX-His-ECD (his-V5 tagged version of the CA IX protein, extracellular domain) (human, UniProt Q16790 38-414); test: ELISA on CA-IX-His-ECD

Row | Binder | OD [OD]
25 | B1 | 2.41
26 | B2 | 0.097
27 | B25 | 0.059
28 | B3 | 0.831
29 | B4 | 1.21
30 | B5 | 2.23
31 | B6 | 1.84
32 | B7 | 0.404
33 | B8 | 2.2
34 | B9 | 0.763
35 | B10 | 1.72
36 | B11 | 2.47
37 | B12 | 2.71
38 | B13 | 2.12
39 | B14 | 2.56
40 | B15 | 1.85
41 | B16 | 0.618
42 | B17 | 0.893
43 | B18 | 1.85
44 | B19 | 2.22
45 | B20 | 1.64
46 | B21 | 2.38
47 | B22 | 2.16
48 | B23 | 1.96
49 | B24 | 1.78
